This note sets out measurements from article PMC2600743 (The Journal of Cell Biology, 2008).

Experiment [1] concerns the target MBD-ank (Table II; ankB or ankG not said) membrane-binding domain. Kind of experiment: SPR, GST-Nav1.2 captured on chip. To be noted: reference: wild type, CK2-treated; sites S1124,S1126.
Experiment [2] has as its target ankyrin G (MBD-ankG) membrane-binding domain, 1–981 (UniProt O70511). Description: SPR, GST-Nav1.2 captured on chip. Particulars: reference: untreated immobilized fragment; sites S1112,S1123,S1124,S1126. (In general: In SPR one partner is held on a chip, and binding of the other changes the refractive index at the surface.)
Experiment [3] deals with ankyrin B (MBD-ankB) membrane-binding domain, 1–957 (UniProt Q01484). Description: SPR, GST-Nav1.2 captured on chip. To be noted: reference: untreated immobilized fragment; sites S1112,S1123,S1124,S1126.
Experiment [4] has as its target T1, MBD-ankG (membrane-binding domain of rat 270-kD ankyrin G, amino acids 1–981) (rat, UniProt O70511 1-981).
T1 sequence (looked up): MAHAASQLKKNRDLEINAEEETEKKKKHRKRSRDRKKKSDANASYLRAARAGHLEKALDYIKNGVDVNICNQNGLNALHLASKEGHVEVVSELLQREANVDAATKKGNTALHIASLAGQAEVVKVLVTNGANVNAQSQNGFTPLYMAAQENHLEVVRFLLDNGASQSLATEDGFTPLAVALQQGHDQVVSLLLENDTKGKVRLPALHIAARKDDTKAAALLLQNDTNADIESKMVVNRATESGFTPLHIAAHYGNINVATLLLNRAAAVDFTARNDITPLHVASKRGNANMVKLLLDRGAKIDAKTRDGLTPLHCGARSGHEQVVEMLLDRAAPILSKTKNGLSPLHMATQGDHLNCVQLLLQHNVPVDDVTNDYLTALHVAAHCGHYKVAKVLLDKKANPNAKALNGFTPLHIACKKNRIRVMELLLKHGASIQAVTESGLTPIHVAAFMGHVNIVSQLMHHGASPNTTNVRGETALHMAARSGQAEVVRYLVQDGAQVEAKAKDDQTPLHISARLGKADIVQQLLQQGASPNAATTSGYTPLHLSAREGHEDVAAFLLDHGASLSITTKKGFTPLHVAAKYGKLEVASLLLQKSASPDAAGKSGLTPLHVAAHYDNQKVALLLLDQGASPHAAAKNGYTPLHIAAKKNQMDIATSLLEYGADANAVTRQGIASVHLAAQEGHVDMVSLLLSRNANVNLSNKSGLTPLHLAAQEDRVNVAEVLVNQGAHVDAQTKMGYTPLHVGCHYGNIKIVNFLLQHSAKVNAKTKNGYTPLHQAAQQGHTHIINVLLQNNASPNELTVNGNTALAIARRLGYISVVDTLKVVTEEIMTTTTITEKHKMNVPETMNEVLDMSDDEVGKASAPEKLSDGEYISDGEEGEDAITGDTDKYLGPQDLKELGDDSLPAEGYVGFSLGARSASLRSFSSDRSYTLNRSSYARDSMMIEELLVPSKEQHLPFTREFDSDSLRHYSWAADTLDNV
Kind of experiment: SPR.

Experiment [5] addresses T2, MBD-ankB (membrane-binding domain of human 220-kD ankyrin B, amino acids 1–957) (human, UniProt Q01484-2 1-957).
T2 sequence (looked up): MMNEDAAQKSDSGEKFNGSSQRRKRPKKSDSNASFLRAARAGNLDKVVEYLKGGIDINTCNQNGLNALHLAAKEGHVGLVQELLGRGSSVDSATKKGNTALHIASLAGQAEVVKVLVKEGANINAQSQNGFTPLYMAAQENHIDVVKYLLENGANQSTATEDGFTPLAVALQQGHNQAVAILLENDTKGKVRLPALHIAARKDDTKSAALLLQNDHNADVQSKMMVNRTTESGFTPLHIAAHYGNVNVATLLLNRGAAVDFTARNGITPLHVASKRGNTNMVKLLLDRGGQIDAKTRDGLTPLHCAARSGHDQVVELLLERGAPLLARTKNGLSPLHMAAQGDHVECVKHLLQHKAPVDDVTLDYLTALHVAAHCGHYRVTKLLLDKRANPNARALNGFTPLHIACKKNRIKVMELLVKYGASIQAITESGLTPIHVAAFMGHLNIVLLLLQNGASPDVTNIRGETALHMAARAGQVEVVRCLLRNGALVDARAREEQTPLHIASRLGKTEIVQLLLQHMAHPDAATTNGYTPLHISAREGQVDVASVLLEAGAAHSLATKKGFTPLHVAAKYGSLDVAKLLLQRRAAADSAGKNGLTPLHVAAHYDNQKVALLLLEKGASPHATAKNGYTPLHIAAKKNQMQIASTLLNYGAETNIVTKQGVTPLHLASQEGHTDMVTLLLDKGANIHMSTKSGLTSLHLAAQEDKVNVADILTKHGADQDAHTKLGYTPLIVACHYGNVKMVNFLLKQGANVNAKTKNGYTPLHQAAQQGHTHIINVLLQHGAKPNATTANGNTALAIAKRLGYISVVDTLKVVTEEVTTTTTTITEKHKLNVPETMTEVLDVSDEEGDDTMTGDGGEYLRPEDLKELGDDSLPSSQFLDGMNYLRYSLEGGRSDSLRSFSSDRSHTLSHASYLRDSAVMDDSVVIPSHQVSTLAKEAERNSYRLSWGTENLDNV
Description: SPR.

On to “Nav1.2 1,080–1,203 (from UniProt P04775) S1124-26A, CK2-treated”, for which the KD result in experiment [1] is listed as “weaker; reference 1.2 10−9”.

In the case of “Nav1.2 1,080–1,203 (from UniProt P04775) phosphorylated on chip with CK2”, the KD entry is given as “stronger; reference 1.7 ± 0.5 × 10−6” in experiment [2] and “stronger; reference 1.2 ± 0.4 × 10−6” in experiment [3].

Take “Nav1.2 989–1,133 (from UniProt P04775) phosphorylated on chip with CK2”: in experiment [3], the KD entry is “stronger; reference 1.3 ± 0.2 × 10−6”.

B1: GST-Nav1.2 1,080–1,203 (domain or fragment, UniProt P04775 1080-1203, looked up)
chain: SSVEKYVVDESDYMSFINNPSLTVTVPIALGESDFENLNTEEFSSESDMEESKEKLNATSSSEGSTVDIGAPAEGEQPEAEPEESLEPEACFTEDCVRKFKCCQISIEEGKGKLWWNLRKTCYK
On to B1, for which the Kd in experiment [4] was determined as 1700 nM; in experiment [5], 1200 nM.

B2: GST-Nav1.2 989–1,133 (domain or fragment, UniProt P04775 989-1133, looked up)
chain: DNLAATDDDNEMNNLQIAVGRMQKGIDFVKRKIREFIQKAFVRKQKALDEIKPLEDLNNKKDSCISNHTTIEIGKDLNYLKDGNGTTSGIGSSVEKYVVDESDYMSFINNPSLTVTVPIALGESDFENLNTEEFSSESDMEESKE
Consider B2, for which, in experiment [5], the Kd was determined as 1300 nM.

A word on the Kd: it is the equilibrium constant for the complex coming apart.
